Laboratory results published in patent US20070286806A1, “Methods and Compositions for Modulating a Steroid Receptor” (Mount Sinai Hospital, priority 2004, published 2007).

Legend:
Assay type in all cases: cell-based
activation domains of PR [1] = target: T1, activation domains of PR (Homo sapiens, UniProt P06401); assay: One-hybrid system: PR activation domains fused to Gal4 DBD, G5-Luc reporter and western blot in SHM cells; conditions: PR650-933 (only the AF2 domain)
T1 construct: expressed in transfected cells; host or cells: SHM (Syrian hamster myocyte) cells
T1 sequence (P06401 650-933): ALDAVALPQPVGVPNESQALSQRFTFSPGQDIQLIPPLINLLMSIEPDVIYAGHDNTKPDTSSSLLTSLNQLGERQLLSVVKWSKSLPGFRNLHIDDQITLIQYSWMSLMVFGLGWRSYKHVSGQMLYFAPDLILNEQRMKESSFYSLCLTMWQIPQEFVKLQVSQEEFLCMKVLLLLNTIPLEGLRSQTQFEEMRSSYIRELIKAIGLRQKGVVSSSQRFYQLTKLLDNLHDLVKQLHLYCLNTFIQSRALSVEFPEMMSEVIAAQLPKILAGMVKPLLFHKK
Description: (§1) FIG. 6 A-F. Inhibition of PR activation domains by PSF involves different mechanisms. Segments containing individual activation domains of PR were fused to Gal4 DNA binding domain in pM vector and cotransfected with or without increasing amounts of His-PSF, together with G5 luciferase reporter vector in SHM cells. Progesterone (10 nM) was added to cells transfected with segments containing PR hormone binding domain (HBD). Luciferase activity was measured 30 hours after transfection and normalized to β-galatosidase acitvity. Data shown are the mean of three separate experiments performed in triplicate±S.E. Whole cell lysate from each transfection was western blotted with anti-Gal4 DNA binding domain (DBD) antibody (Santa Cruz) and anti-His tag antibody H-15 (Santa Cruz). Note: the empty vector pSG5 was added to the DNA mixture to ensure that the amounts of SV40 promoter in all the transfection assays are equal.
(§2) For immunoprecipitation of the endogenous PR and PSF, T47D cells cultured in 150 mm dishes were lysed in 800 μl NETN buffer containing 150 mM NaCl plus protease inhibitor cocktail. Cell lysate were then incubated with 5 μg of PR or PSF, or control mouse IgG at 4° C. overnight, followed by the addition of 30 μl of protein A/G PLUS-agarose beads (Santa Cruz) for another two hours at 4° C. Resins were washed with NETN containing 250 mM NaCl and eluted with 1×Laemmli buffer. The eluted proteins along with the whole cell extract were western blotted by PR or PSF antibody. • GST pulldown assay: GST pulldown assay was performed as previously described (20). GST and its fusion proteins were first immobilized to glutathione-Sepharose 4B affinity matrix. The matrix was then incubated at 4° C. overnight with rabbit reticulocyte lysate (Promega) containing PR or His-PSF transcribed and translated in presence of ^35S methionine. The matrix was washed three times with cold NETN buffer before adding 1 ×Laemmli buffer to elute associated proteins. The eluted proteins were separated on 10% SDS-PAGE gel. Gels were treated with Enhancer (NEN, Boston, US) dried and analyzed by autoradiography. • Cell culture and transient transfection: SHM cells and 293T cells were maintained in DMEM plus 5% FCS (Sigma) as described before (22). For experiments involving steroid exposure, the medium was substituted with phenol red free DMEM containing 5% charcoal-treated fetal bovine serum (Hyclone, Utah, USA). Transfection was performed according to manufacturers protocol (Fementas). Cells were seeded at a density to achieve 60-80% confluency the following day. The DNA and transfection reagent were mixed and added to the medium. Cell lysates were collected at least 30 hours after transfection. For luciferase assay, cells were collected in 200 μl of lysis buffer (Promega) of which 10μl was used for the luciferase and β-Gal activity assays respectively. Luciferase activity was determined by using the luciferin reagent (Promega) according to manufacture's protocol. Transfection efficiency was normalized to β-galactosidase activity. For western blots, cell lysates were collected in NETN buffer plus protease inhibitor cocktail. About 30 μg of protein extract was separated on SDS gel electrophoresis followed by western blotting with antibodies of interest. • Electrophoretic Mobility Shift Assay: PRDBD was synthesized in rabbit reticulocyte by using the TNT coupled in vitro transcription-translation system (Promega) with the vector pcDNA3 PRDBD. Full-length PR protein extract was obtained by transiently transfecting 293T cells with Flag-PRB vector. Cells were treated with 10^−8 M progesterone and nuclear fraction was extracted by the NE-PER Nuclear and Cytoplasmic Extraction Reagents Kit (Pierce). The nuclear fraction containing PRs was confirmed by western blot with the PR antibody AB-52 and used in gel shift assay. […]

activation domains of PR [2] = target: T2, activation domains of PR (Homo sapiens, UniProt P06401); assay: as above
T2 construct: expressed in transfected cells; host or cells: SHM (Syrian hamster myocyte) cells
T2 sequence (P06401 456-650): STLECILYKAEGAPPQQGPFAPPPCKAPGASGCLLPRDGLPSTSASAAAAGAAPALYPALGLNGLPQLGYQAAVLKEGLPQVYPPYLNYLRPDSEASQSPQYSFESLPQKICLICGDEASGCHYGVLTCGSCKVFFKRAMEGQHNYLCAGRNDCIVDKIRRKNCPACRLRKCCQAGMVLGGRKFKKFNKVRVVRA
Description: as §1, §2

activation domains of PR [3] = target: T3, activation domains of PR (Homo sapiens, UniProt P06401); assay: as above; remark: listed apart in the source
T3 construct: expressed in transfected cells; host or cells: SHM (Syrian hamster myocyte) cells
T3 sequence (P06401 556-933): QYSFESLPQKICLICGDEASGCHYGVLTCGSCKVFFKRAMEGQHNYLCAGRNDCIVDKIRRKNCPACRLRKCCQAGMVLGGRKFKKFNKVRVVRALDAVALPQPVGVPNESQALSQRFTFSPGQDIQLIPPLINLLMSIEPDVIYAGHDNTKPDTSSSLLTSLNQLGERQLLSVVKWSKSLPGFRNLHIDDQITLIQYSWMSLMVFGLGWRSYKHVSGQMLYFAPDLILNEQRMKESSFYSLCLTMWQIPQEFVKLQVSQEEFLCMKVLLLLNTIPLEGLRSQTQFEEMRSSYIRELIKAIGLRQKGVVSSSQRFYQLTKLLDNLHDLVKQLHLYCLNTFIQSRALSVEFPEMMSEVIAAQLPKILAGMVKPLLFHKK
Description: as §1, §2

activation domains of PR [4] = target: T4, activation domains of PR (Homo sapiens, UniProt P06401); assay: as above; conditions: PR456-556 (AF1 domain)
T4 construct: expressed in transfected cells; host or cells: SHM (Syrian hamster myocyte) cells
T4 sequence (P06401 456-556): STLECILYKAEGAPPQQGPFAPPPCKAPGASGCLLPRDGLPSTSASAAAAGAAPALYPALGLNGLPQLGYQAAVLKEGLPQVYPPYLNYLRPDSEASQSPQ
Description: as §1, §2

activation domains of PR [5] = target: T5, activation domains of PR (Homo sapiens, UniProt P06401); assay: as above; remark: listed apart in the source
T5 construct: expressed in transfected cells; host or cells: SHM (Syrian hamster myocyte) cells
T5 sequence (P06401 1-164): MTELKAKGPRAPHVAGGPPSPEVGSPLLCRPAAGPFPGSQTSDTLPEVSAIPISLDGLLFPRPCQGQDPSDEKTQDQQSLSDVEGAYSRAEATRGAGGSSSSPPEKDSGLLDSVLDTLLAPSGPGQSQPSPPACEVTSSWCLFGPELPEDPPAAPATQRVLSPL
Description: as §1, §2

PR protein = PR protein levels on over-expression of PSF in 293T cells; conditions: over-expression in 293T cells

B1: polypyrimidine tract binding protein-associated splicing factor (protein)
chain: MSRDRFRSRGGGGGGFHRRGGGGGRGGLHDFRSPPPGMGLNQNRGPMGPGPGQSGPKPPIPPPPPHQQQQQPPPQQPPPQQPPPHQPPPHPQPHQQQQPPPPPQDSSKPVVAQGPGPAPGVGSAPPASSSAPPATPPTSGAPPGSGPGPTPTPPPAVTSAPPGAPPPTPPSSGVPTTPPQAGGPPPPPAAVPGPGPGPKQGPGPGGPKGGKMPGGPKPGGGPGLSTPGGHPKPPHRGGGEPRGGRQHHPPYHQQHHQGPPPGGPGGRSEEKISDSEGFKANLSLLRRPGEKTYTQRCRLFVGNLPADITEDEFKRLFAKYGEPGEVFINKGKGFGFIKLESRALAEIAKAELDDTPMRGRQLRVRFATHAAALSVRNLSPYVSNELLEEAFSQFGPIERAVVIVDDRGRSTGKGIVEFASKPAARKAFERCSEGVFLLTTTPRPVIVEPLEQLDDEDGLPEKLAQKNPMYQKERETPPRFAQHGTFEYEYSQRWKSLDEMEKQQREQVEKNMKDAKDKLESEMEDAYHEHQANLLRQDLMRRQEELRRMEELHNQEMQKRKEMQLRQEEERRRREEEMMIRQREMEEQMRRQREESYSRMGYMDPRERDMRMGGGGAMNMGDPYGSGGQKFPPLGGGGGIGYEANPGVPPATMSGSMMGSDMRTERFGQGGAGPVGGQGPRGMGPGTPAGYGRGREEYEGPNKKPRF
notes: expressed from transfected His-PSF vector or in vitro translated
effect on PR650-933 (activation domains of PR [1]): no effect | transactivation of PR456-650 (activation domains of PR [2]; PR456-650 (AF1 domain and DBD)): inhibited transactivation | protein of PR456-650 (activation domains of PR [2]; PR456-650, western blot): enhanced degradation | transactivation of PR556-933 (activation domains of PR [3]; PR556-933 (DBD and AF2 domain), 10 nM progesterone): did inhibit transactivation | protein level of PR556-933 (activation domains of PR [3]; PR556-933, western blot): without any reduction | effect on PR456-556 (activation domains of PR [4]): no effect | luciferase activity of pM PR1-164 (activation domains of PR [5]; PR1-164 (AF3), increasing amounts of PSF): significant dose-dependent reduction in luciferase activity | pM PR1-164 protein (activation domains of PR [5]; PR1-164, western blot): loss of pM PR1-164 protein | PR protein levels (PR protein): reduced PR protein levels
